This is an account of results in a protein production outcome set (Wang et al. 2014).
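Note: failed if final PepcDB status was selected cloned or expressed and not failed if soluble or beyond.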

This data set in a line: label from the status in PepcDB records.
For the sequence “MTKYQETAKAILAAVGGEKNIQHVTHCVTRLRLVLDNDEIVNDQVIKTIPNVIGVMRKNDQYQIILGNDVNNYYNAFLALGHFENTTREFSSQKKSSILEKLIETIAGVITPLIPALLGGGMLKVIGILLPMLGIASSSSQTVAFINFFGDAAYYFMPIMIAYSAASRFKVTPVLAATVGGILLHPAFVTMVAEGKPLSLFGAPVTLASYGSSVIPILIMVFLMQYIERWINKIVPSVMKSFLQPTLIILISGFLALVVVGPLGVIIGKGLSSAMLSIYHVAPWLALSILGAIMPLVVMTGMHWAFAPIFLAASVATPDVLILPAMLASNLAQGAASLAVAVKAKQKQTRQVAFAAGLSALLAGITEPALYGVTLKFKKPLYAAMISGGLVGAYIGLVNIASYTFVVPSIIGLPQYINPQGGNNFSNAVIAAIATIILTFIITWFLGIDEGENEKSSINAQEHTHIRSGLSKKETLYSPMVGNVLPLSKVPDETFSSKLLGEGLAITPSVGEVYAPFDGEIISLFPTKHAIALKDDKGVEVLIHIGIDTVELNGEGFEQLVKVGDFVKRGQLLLRMDIDFISSKGYSLISPVVVTNSIDQLEIIVKDAETMVTNEDDLLVIL”, the protein production result is “failed”.

For the sequence “TIADVQSSRDLRNLPINQVGIKDLRFPITLQTAEGIQSTIARLTMTVYLPAEQKGTHMSRFVALMEQHAEALDFAQLRKLTTEMVALLDSRAGKISVSFPFFRKKTAPVSGIRSLLDYDVCLTGEIKDGAYGHSMKVMIPVTSLCPCSKEISQYGAHNQRSHVTVSLTADAEVGIEEVIDYVEAQASCQLYGLLKRPDEKYVTEKAYENPKFVEDMVRDVATSLIADKRIKSFVVESENFESIHNHSAYAYIAYP”, the protein production result is “not failed”.

Consider “MTLHNEIKQLIIDCLDLEDVSIDDIETDAPLFGDGLGLDSIDALELGLAIKKKFDVKIEANSDSTKAHFYSVASLAKFIESQRP”, for which the protein production result is listed as “failed”.

With “MILLEGSYREMGRQYGGLMKTELLSEYAMLTKTLEDRGYSLDYLRWYASAGTQFQPERMKEITRGMAETTGLSEADLSILYYGPALYISMPAGCSYLAVWDTYTTDGSVVLSRNWDLPDLLDPFNPYYVLAVCRPTDGSNGVATFGPAGSRPETLMNSAGLFIADDNSGLAPVGQDDRPDLISEFFRLMLDYSDLDGLKTGVLTTRPDVAWIVDVGGPDGAYVFEVGLNETKVRIGDGVVAAANHFVDPSWDLTTPPGEHSLTRYANLLSQAEAAKGSIDAEEMMQIRDVLMTDDGATFRHSELFGYPYSSNHQVVFVPATRTLWMKVIDLDWQKVELAPLFAM”, the protein production result is given as “failed”.

Take “MRRRGKGGGSVFYHEGKGKWVAQLTWIDPATGRKVKREKHCETRKEAERALADMVVAQAKGLLTDPSRLTTRDFALDYLKRLEREGLRPNSIRLAQEELAHALPSLKDPKAHDPLGRMRLQEVKPVHVRAAVDRVAEAGYAPRTVGRVLMRLKALFREALRLELVARNPAEAVRLRLPKGEKTARALEPQEVARLLETAEASRSKDMALLLRLMLETGLRRGEALALQWRDIDLEAGELTVWRSWTKARGKGAFSEPKTPTAKRKVPLPRGLLLRLKARREELLERLTPEEVDGLFLVGGVKPVDPDAFNHYLRRLAERAGLGRVRVHDLRHTWATLALSRGVPLEVVSERLGHASPTITLNVYRHLLEEERRGWVLDLEELLYPAPRAQA”: the protein production result is on record as “failed”.

Regarding “MHLNNLNNFNNLENNGEYHCSGPIIKKPFRHIALTVPSSDITNFNEIFYVEPQYIAQAIRLTNTFQGAIDPLTLNFNFEKALQIANGLPNAGVTGTINQSVIHQTIEVSVMISQIKEIIRSVLGLVINSANFWNSVVSAITNTFTNLEPQVDENWIVWRNLSATQTSYFYKILFSIQNEDTGRFMAILPIAFEITVDVQKQQLLFITIKDSARYEVKMKALTVVQALDSYNAPIIDVFNVRNYSLHRPNHNILQNLNVNPIKS”, the protein production result is “not failed”.

For the sequence “MRQYNPPAMNIPQEVARRRTFAIISHPDAGKTTLTEKLLLFAGAIQIAGSVKARKASRHASSDWMEIEKQRGISVASSVMQMEYRDCVINLLDTPGHQDFSEDTYRVLTAVDAALMVIDAANGVEPQTIRLLQVCRARNTPIITFINKLDREVREPLELLSEIEGHLGMDTVPFSWPVGMGKAFGGVFDIRRNRMRIFRAGQERRGEDDEFIDGLDNPEIPRRFGAAFAQASGEIELINEAAPAFDREAFLAGKQTPVFFGSAINNFGVQEVLDALVDQAPAPGPRQALEREVRPDEPKFTGVVFKVQANMDPAHRDRVAFVRVSSGRFERGMRLKVARTGKEMRPNNVVSFLSQRRELLDEAYAGDVIGIPNHGVLQLGDVLTEGESLRFTGLPFFAPELFQAVEVKDPLRTKQLRVGLTQLGEEGAIQVFRPEAAGGALLLGAVGQLQFEVVAHRLKTEYGVDARMMPSRYTSARWITSDDPRALRKFMDANAAHIAYDVVDAAAFLITSPAQLRVAEDLYPNVKFHALREHGGKVFGDKA”, the protein production result is given as “failed”.

For the sequence “MFVVANIVVGIAKILDAILNLYFWVIIAAAVLSWVNPDPYNPVVRVVRNLTEPVFYRVRKWLPFTYVGGLDLSPLVVLLGIQIINSVLVQSLYQLAVRLY”, the protein production entry is listed as “failed”.

Regarding “GSHMKEDQVVAEEPGFQDEEESLFQDIDLLQKHGINVADIKKLKSVGICTIKGIQMTTRRALCNVKGLSEAKVDKIKEAANKLIEPGFLTAFEYSEKRKMVFHITTGSQEFDKLLGGGIESMAITEAFGEFRTGKTQLSHTLCVTAQLPGAGGYPGGKIIFIDTENTFRPDRLRDIADRFNVDHDAVLDNVLYARAYTSEHQMELLDYVAAKFHEEAGIFKLLIIDSIMALFRVDFSGRGELAERQQKLAQMLSRLQKISEEYNVAVFVTNQMTADPGATMTFQADPKKPIGGHILAHASTTRISLRKGRGELRIAKIYDSPEMPENEATFAITAGGIGDAKE”, the protein production entry is on record as “not failed”.

“MKSQFLLSVKEHMLTRYYANKTIESYLFWIKRFIVFHQFAHPSKLSEDDVIRFLSHLAIDEKVAVKTQALALNAISFLYRDFFKTPLSLDMRFQKSLTEKKLPVVLTRDEVRRFV”: the protein production entry is “failed”.

With “MMEQALQTITLSCEWSEERQCFWLSSSSPATSWAPLVFAWHEETFYGTLIDSVIVNGREVVQLSPWQALTFFASRPSISFVAIEWKDEFTAQLETWARQIWDDLRERRFRPDFAAWKERRSTLWSEAQHTRWLGLDADPHPFITTWRSLAIADWLSRDPELRDIWQEIIKDYPAILARNDQWISGEDDWLEQIGWLGERPLFTVGLRLVEPPEDGDSWTLETVLIALDDSVVVPVDEIPRAWRPYEQSIARAIRRIETIIPWLGGNGELRNELSDDEAWLFLSEESLKLTEAGVRLLLPDWWHNIRQAQLSIKAKLSPSVHAESLFGLERLSDFDWRVATNGIELTEEEFAAIAEQKRRLIRLRGQWIALDPALVRRAQTLMEKAKQEGVPIHEIVAQTLLAEANARDEATDEHIPIHIDVQNQFRAFIRQLHNIDELPTAVVPPSFHGTLRPYQQRGVDWLAFLRRFGFGACLADDMGLGKTVQLLAYLAYVKETEHPDTPALLICPTSVIGNWQKECARFTPELRVYTHHGPNRAKHEAFLQTAGRADLVITSYSLAHLDGDDLKQLHWHTVCLDEAQNIKNAQTKQARAIRRLRAKHKIALSGTPVENRLNELWSIFHFLNPGYLGSATEFERRFAGPIEKEGDAHKKAALQALIRPFLLRRTKTDEAVALNLPDKLEQKEYCPLTAEQAALYEQLVNDTLERAKAASPFARRGLILQMLNGIKQICNHPALYLKERSPRQLVERSHKLEKLVELVEQIRANDESCLIFTQYVRMGEMIQELLSDLFDEPVLFLNGSVPKPTRDRMVDEFQARKAPIFLLSLKAGGTGLNLTAANHVIHFDRWWNPAVENQATDRAYRIGQTKFVHVHKLITTGTIEEKIDEMLEQKQALADVITEGETWITELSDDELRDLLTLSAAAKGGA”, the protein production result is listed as “failed”.

Take “MERQDDPDAIQRLLVPTDLSASALRAFRHAVALARLYDAAIDVLHVIESVPYVALTPTDRLSLGATTLLERRGRRRLRAFLQEGEAAGVQVQSHIMRGAAADQISRFANQGDVDLMVLSAHGSDAEEGPLGPVGTRVLGRVTRPLFLVRASGPSLLGPPDDAA”: the protein production entry was “failed”.

For the sequence “MGKVIGIDLGTTNSCASVLEGGKPIVITNTEGGRTTPSIVGFTKGSQRLVGQLAKRQSVTNAENTVYSIKRFIGRRWDDTVEERSRVPYNCVKGRDDTVSVSIRGQSYTPQEISAMILQKLKADSEAFLGEPVTQAVITVPAYFTDAQRQATKDAGTIAGLEVLRIINEPTAAALAYGLDKQETEELILVFDLGGGTFDVSLLQLGNGVFEVLSTSGNNHLGGDDFDNCVVQWMAESFKQKENIDLSTDKMAIQRLREAAEKAKIELSSMLNTTINLPFITADESGPKHLEMELARSQFEELTKQLLEDTRVPLTQALDDGEIRASDVHRVILVGGSTRIPAIQRVIQEFFPDSQLERSVNPDEAVALGAAIQAGVIGGEVEDVLLLDVTPLSLGLETLGEVTTKIIERNTTIPTSRSEVFSTAVDGQTSVEIHVIQGERAMARDNKSLGKFLLAGIPPAPRGMPQIEVSFEIDVNGILKVSAQDQGTGKEQSIVISHTGGLSGGEIEKMRQEAQQYAAQDQLRLRMMELQNQADSLFHTYETTLQESGELVREELKSSGKQKKDQLAIALRTPNTPVEKLQTLVEEFRQIILLIGTEVYQQGKGAASNEFANFVQGTSSGTSQMIESLETNLNPIQASSGITMTPGTMINGTVNPGGMDYVETAPVYGLDDGEEFDFDADETVYSDYEAID”, the protein production entry is reported as “failed”.

Take “MENKEISYEIIDFSGETNVQFRTSVDPGSYIPTHWHRAIEIIYMQEGSLDVIVESESFTIYKGDCILVNGNVLHSTKCTAPNTAILLQIPLNFMEKYIPNLGQLIFLWDYRTEDPVKKTKLMMLKTTLEQLQVINDIQPDGYLLRFNSLIFELMFQLYHNFSVQVFPQDINHKKKEMDRLDP”: the protein production entry is given as “not failed”.

Regarding “MHYDVIVIGGGPSGLMAAIGAAEEGANVLLLDKGNKLGRKLAISGGGRCNVTNRLPLDEIVKHIPGNGRFLYSAFSIFNNEDIITFFENLGVKLKEEDPGRMFPVSNKAQSVVDALLTRLKDLGVKIRTNTPVETIEYENGQTKAVILQTGEVLETNHVVIAVGGKSVPQTGSTGDGYAWAEKAGHTITELFPTEVPILSNEPFIRDRSLQGLALRDINLSVLNPKGKAIISHKMDMLFTHFGLSGPAALRCSQFVVKALKKFKTNTIQMSIDALPEENSEQLFQRMLKQMKEDPKKGIKNVLKGYVPERYFLFLLEKNEIDGSEQAGQVSHEKIRALVKDFKEFTVNVNGTQSIEKAFVTGGGVSVKEINPKEMSSKFTNGLYFCGEVLDIHGYTGGYNITSALVTGRIAGTTAGENAKMQY”, the protein production entry is “not failed”.

Consider “MIIVGFIGLVLVIILSAVLSLLRARSEALRQQQQFLAQLCPQLERQKTDRSPLNIPVVPQECEPLYHALNEMLAALPAGMGKDKLTGLINRVGLKRTLASLMPITQGTLVLIDIYRFRYVNDLLGFVFGDILLKQFAERLTSLSLKPKLIARLNGDEFFLYYEQSLSQEQLLHLRGRLQVPFNIKDTPVSVRLQIGCLQLAQHHADVSNMLRRLDLALKKARSTRIAIACYSENDDIRQLRELKIIDSLPNGLQRNHLYMVYQPKQDVSSEGCTQVEALIRWEHEELGVISPGEFIPLAECAGMIDLVSHWALEQVLQQQVKWRLAGISVCVALNLSTRDLDSETLPHELDARLKHYQLPPECLMIEITESTLMADLNKAVDTLVQIRRLGIHLAIDDFGTGHSSLAYLKHLPANEVKIDKVFLQDLKPNQPSEYILEASVNIAKKLGYEVTVEGVETQEVRDLLVKMGVDRIQGLCYAKPMRAVELEMHWHRLCPAPKMLSANLGSHP”, for which the protein production entry is on record as “failed”.

As to “ESEKSFRILFEKSPEGFLILDGGGNILEANPAALGMLGEEMEALQGRGVFELLQGEKIPLKEEEMNQKIERIYENRLGQEVLLETILIPAQVEGKARIFAIWRDVT”, the protein production entry is given as “failed”.

On to “MSAGEHAGGVFLGGIAIDEPTREAARAMVDRDREEFLPADPVAWVDDQLSELDDAFLRPAVNVRAVRLGPLRDVAAVCAAHDAILEVNAHCRQDELCDAGAGETLLRDTSRLCEQVRAASDEGAAVSVKVRAGVQGVHLPVLAQAIERAGAAAIHVDAMDSRRVVRDVADATALFVVANNGVRTRDDVFEYLSYGADAVSVGRPSRDPERVRAVYAAVKEWLL”, for which the protein production entry is recorded as “failed”.
